The source of these data is patent US12215162B2, “BAFF-R targeted chimeric antigen receptor-modified T-cells and uses thereof” (CITY OF HOPE, priority 2016, dated 2025).

The target of this test is T1, recombinant extracellular domain of human BAFF-R (Homo sapiens, UniProt Q96RJ3).
T1 construct: The antigen was commercial, recombinant extracellular domain of human BAFF-R; purchased
The test can be described thus: Biacore analysis of binding affinity of humanized BAFF-R antibody variants. The source says: The chimeric antibody, clone 90, was humanized while retaining its binding specificity and cytotoxic effects. Through computational analysis of the CDRs and predicted structure, three variants of the heavy and three variants of the light chain were produced with varying degrees of likeness to human antibodies. A total of nine combinational variants was constructed from the humanized heavy and light chains.
The chimeric anti-BAFF-R antibody C90 was humanized with several variants. The humanization process took into consideration and analysis of the variable region and specifically the CDRs of the chimeric antibody. From there, three variants for each heavy and light chain was developed with varying degrees of human-likeness ranging from 1 the most human to 3 the most conservative to the chimeric. The variants were combined to produce 9 variants. Biacore analysis was performed on each variant as well as the chimeric parental C90 to determine their equilibrium dissociation constant KD. The antigen was commercial, recombinant extracellular domain of human BAFF-R.
A general note: SPR reads the build-up and loss of mass on a sensor chip optically.

B1: Humanized HC1 + LC2: humanized C90 variant, heavy chain variant 1 with light chain variant 2 (antibody, V domains shown)
VH: QVQLQESGPGLVKPSQTLSLTCTVSGDSITSGYWNWIRQHPGKGLEYIGYISYSGSTYYNPSLKSRVTISRDTSKNQFSLKLSSVTAADTAVYYCASPNYPFYAMDYWGQGTLVTVSS
VL: DIVLTQSPATLSLSPGERATLSCRASESVDNYGISFMNWFQQKPGQAPRLLIYAASNRATGIPARFSGSGSGTDFTLTISSLEPEDFAVYYCQQSKEVPWTFGGGTKVEIKRTV
On to B1, for which the kdis was determined as 0.0023 s⁻¹ and the kon worked out at 620000 M⁻¹ s⁻¹.

B2: Humanized HC3 + LC3: humanized C90 variant, heavy chain variant 3 with light chain variant 3 (antibody, V domains shown)
VH: EVQLQESGPGLVKPSETLSLTCSVSGDSITSGYWNWIRQPPGKGLEYIGYISYSGSTYYNPSLKSRVTISRDTSKNQYSLRLSSVTAADTALYYCASPNYPFYAMDYWGQGTRVTVSS
VL: DIVMTQSPSSLSASVGDRVTITCRASESVDNYGISFMNWFQQKPGKAPKLLIYAASNLGSGVPSRFSGSGSGTDFTLTISSLQPEDFATYYCQQSKEVPWTFGQGTKVEIKRTV
In the case of B2, the kdis was determined as 0.0023 s⁻¹ and the kon was 680000 M⁻¹ s⁻¹.

B3: Humanized HC3 + LC1 (antibody, V domains shown)
VH: EVQLQESGPGLVKPSETLSLTCSVSGDSITSGYWNWIRQPPGKGLEYIGYISYSGSTYYNPSLKSRVTISRDTSKNQYSLRLSSVTAADTALYYCASPNYPFYAMDYWGQGTRVTVSS
VL: EIVLTQSPATLSLSPGERATLSCRASESVDNYGISFLNWFQQKPGQAPRLLIYAASNRATGIPARFSGSGSGTDFTLTISSLEPEDFAVYYCQQSKEVPWTFGGGTKVEIKRTV
As for B3, the kdis was 0.0031 s⁻¹ and the kon came out at 820000 M⁻¹ s⁻¹.

B4: Humanized HC1 + LC3: humanized C90 variant, heavy chain variant 1 with light chain variant 3 (antibody, V domains shown)
VH: QVQLQESGPGLVKPSQTLSLTCTVSGDSITSGYWNWIRQHPGKGLEYIGYISYSGSTYYNPSLKSRVTISRDTSKNQFSLKLSSVTAADTAVYYCASPNYPFYAMDYWGQGTLVTVSS
VL: DIVMTQSPSSLSASVGDRVTITCRASESVDNYGISFMNWFQQKPGKAPKLLIYAASNLGSGVPSRFSGSGSGTDFTLTISSLQPEDFATYYCQQSKEVPWTFGQGTKVEIKRTV
On to B4, for which the kdis is 0.0021 s⁻¹ and the kon was 410000 M⁻¹ s⁻¹.

B5: Humanized HC2 + LC1 (antibody, V domains shown)
VH: EVQLQESGPGLVKPSQTLSLTCTVSGDSITSGYWNWIRQHPGKGLEYIGYISYSGSTYYNPSLKSRVTISRDTSKNQYSLKLSSVTAADTAVYYCASPNYPFYAMDYWGQGTLVTVSS
VL: EIVLTQSPATLSLSPGERATLSCRASESVDNYGISFLNWFQQKPGQAPRLLIYAASNRATGIPARFSGSGSGTDFTLTISSLEPEDFAVYYCQQSKEVPWTFGGGTKVEIKRTV
Consider B5, for which the kdis stood at 0.002 s⁻¹ and the kon stood at 770000 M⁻¹ s⁻¹.

B6: Humanized HC3 + LC2: humanized C90 variant, heavy chain variant 3 with light chain variant 2 (antibody, V domains shown)
VH: EVQLQESGPGLVKPSETLSLTCSVSGDSITSGYWNWIRQPPGKGLEYIGYISYSGSTYYNPSLKSRVTISRDTSKNQYSLRLSSVTAADTALYYCASPNYPFYAMDYWGQGTRVTVSS
VL: DIVLTQSPATLSLSPGERATLSCRASESVDNYGISFMNWFQQKPGQAPRLLIYAASNRATGIPARFSGSGSGTDFTLTISSLEPEDFAVYYCQQSKEVPWTFGGGTKVEIKRTV
B6: the kdis stood at 0.0037 s⁻¹ and the kon amounted to 1.2e+06 M⁻¹ s⁻¹.

As a reminder, the kon is the second-order rate constant of association.
